# Laboratory results from the supplement of paper PMC9170038.
# System: MS2 coat protein
# Assay: apparent KD of MS2 coat protein; designed switch direction (-1 OFF switch, 1 ON switch): -1; higher = weaker reporter binding
# Procedure, shortened: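 Designed RNA switches with common flanks were transcribed on Illumina chips by stalled E. coli RNA polymerase and titrated with SNAP-549-labelled MS2 coat protein, from 0.7 or 1.5 nM doubling to 3 µM, in Tris-HCl pH 7.5 buffer with KCl, MgCl2, BSA, DTT, tRNA and Tween-20. Steps lasted 0.8–1.5 h (lowest) to 10–20 min (highest). Titrations ran without input, with 200 uM small-molecule ligand, or with an oligonucleotide input. Normalised cluster fluorescence was curve-fitted, and apparent KD is the per-design median over clusters.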
# [1] = input ligand: microRNA oligo, concentration not stated
# [2] = Eterna round: R95, input ligand: microRNA oligo, concentration not stated
# [3] = Eterna round: R95, input ligand: FMN 200 uM
# [4] = Eterna round: R95, input ligand: none
Sequence,apparent KD of MS2 coat protein (input ligand: FMN 200 uM),apparent KD of MS2 coat protein [1],apparent KD of MS2 coat protein (input ligand: none),apparent KD of MS2 coat protein [2],apparent KD of MS2 coat protein [3],apparent KD of MS2 coat protein [4]
"AAAAAAAACAAGCUUAGGGACAUGAGGAUCACCCAUGUUCGUCUUAUAAAAAUAAAAAUAAAAAACAAAAAAUAAAA [Sensor V2: 53] (Eterna round: R96, puzzle: Sensor v2, turn-off variant)",22.5 nM,128 nM,24.1 nM,–,–,–
"AAAAAAAGACAAGAGGAGAAUCGUCUUAAAAAUCCUCAGACAUGAGGAUCACCCAUGUAAAAUGAUCGAAAGAUCAA [Mat - Sensor v2 - ver2 - JL mod - D42] (Eterna round: R96, puzzle: Sensor v2, turn-off variant 2)",39.7 nM,40 nM,40.6 nM,–,–,–
"AAAAAACAAGCUUUUUGAAACAUGAGGAUCACCCAUGUCUUAUAAAAUAAAAAUAAAAAUAAAAAUAAAAUAAAAAA [Sensor V2: 80 Random] (Eterna round: R96, puzzle: Sensor v2, turn-off variant)",36.2 nM,67.9 nM,37.4 nM,–,–,–
AAAAAACAAGGAUAUACGAAGGAUGGUUAUCUUAAUUUUUGACAUGAGGAUCACCCAUGUAGAAGGUGUUAAAA [JR_Exclusion2_Sub010] (puzzle: Exclusion 2),–,–,–,34.8 nM,–,–
"AAAAAACAUGAGGAUCACCCAUGUAAGGAUAUCUAAAAUAAAAGAAAAAUAAAGAAAAGGAGAAGGUACAAGGA [JL wbt mod 25] (Eterna round: R96, puzzle: Exclusion 1)",32.5 nM,23.4 nM,29.8 nM,–,–,–
"AAAAAACAUGAGGAUCACCCAUGUGAGGAUAUGCUAAAAAAAUCCGCAUGAAAAAAUAGCAGAAGGCACAUAAA [PK2] (Eterna round: R96, puzzle: Exclusion 1)",93.5 nM,27.2 nM,36.2 nM,–,–,–
"AAAAAGCUGAGAGGAUAUGGUGCCGAAACGGUGCUAGAAGGCUUUGCAAAAAAACAUGAGGAUCACCCAUGUUCAUGUAGAGAA [AK ExNG1-1.2] (Eterna round: R96, puzzle: Exclusion NG 1)",15.8 nM,11.8 nM,19.6 nM,–,–,–
AAAACACAUGAGGAUCACCCAUGUGAGGAUAUGUCCAUAUUCGGCAAAUCGGAUAUGGACAGAAGGCACAUAAA [JR_Exclusion1_Sub014] (puzzle: Exclusion 1),–,–,–,48.9 nM,54.7 nM,39.7 nM
"AAAACGUCAGGAUAUCCAAUAUAUGACAUGAGGAUCACCCAUGUUUCCACUCGUACCUCCGGAGAAGGGACUAAUA [Ex5 #84] (Eterna round: R97, puzzle: Exclusion 5)",34.7 nM,–,38.2 nM,–,–,–
"AAAACGUGAGGAUAUACUGUGAGAUCUCAAGGUACGUUAAGACAUGAGGAUCACCCAUGUAGAAGGCGCCAAAA [Eternabot (Original) Solution 15] (Eterna round: R97, puzzle: Exclusion 2)",57.3 nM,–,30.9 nM,–,–,–
"AAAACUGCCCAUAACCGCAAGCUUUUUGCUUGUCUUACCACAUGAGGAUCACCCAUGUGACAUGGGCUCCUUAUAAA [Arixeerat] (puzzle: Sensor v3, turn-off variant 2)",–,–,–,8.53 nM,14.1 nM,12 nM
"AAAACUGCCCAUGACCGCAAGCUUUUUGCUUGUCUUACCACAUGAGGAUCACCCAUGUGUCAUGGGCUCCUUAUAAA [Tisoanor] (puzzle: Sensor v3, turn-off variant 2)",–,–,–,10.8 nM,12.7 nM,11.3 nM
AAAAGAGGAGGAUAUGCAAACAAUGUAAAAGUGAAAGUAAAACAUGAGGAUCACCCAUGUAGAAGGCCUGAAAA [nah] (puzzle: Exclusion 2),–,–,–,20.4 nM,20 nM,20.2 nM
"AAAAGGAUAGGAUAUGCUCUAGGACACUUGAGGAUCACCCAAGUGUCGGCAAGGUCCUAGGCAGAAGGAUCUGGCA [Onordibi] (Eterna round: R97, puzzle: Exclusion 5)",88.3 nM,–,29.9 nM,–,–,–
"AAAAGGCAGGGAGGAUAUGCUUGCCUGGGUCGUCUUCAAACAUGAGGAUCACCCAUGUAGUCGACGCAGAAGGCCCUCAAAGAA [Mat - Exclusion NG 2 - Mod of JL - D62] (Eterna round: R96, puzzle: Exclusion NG 2)",37.7 nM,40.8 nM,57.2 nM,–,–,–
"AAAAGGCGAGGAUAUACAGACCUCGGAAAAUCAAAGCAGAGACAUGAGGAUCACCCAUGUAGAAGGCGCAACAA [Geerbiorer] (Eterna round: R97, puzzle: Exclusion 2)",20.8 nM,–,15.9 nM,–,–,–
AAAAUAAAAGUCAGGAUAUUCCUACAACGACUAAGGAAGAAGGGACAUGAGGAUCACCCAUGUGGUCUUCCGAA [Onesti] (puzzle: Brourd's mod of Exclusion 4),–,–,–,17.8 nM,42.5 nM,15.1 nM
"AAAAUAAAGAUGCCUUUAAACAUGAGGAUCACCCAUGUGAGUAAGGAUAUCGGAACCAAUCGCGACGAGAAGGUACUCGCGUGU [Relela] (Eterna round: R96, puzzle: Exclusion NG 3)",12.1 nM,11.1 nM,15.7 nM,–,–,–

Sequence,apparent KD of MS2 coat protein (input ligand: FMN 200 uM),apparent KD of MS2 coat protein [1],apparent KD of MS2 coat protein (input ligand: none),apparent KD of MS2 coat protein [2],apparent KD of MS2 coat protein [3],apparent KD of MS2 coat protein [4]
"AAAAUGGUCUAGGAUAUGACAAAUCUGAGCACGUCAGAAGGAGACACAUGAGGAUCACCCAUGUGGGUGCGAAA [Erteedza] (Eterna round: R96, puzzle: Exclusion 6)",–,29.3 nM,–,–,–,–
AAAAUGGUCUAGGAUAUGACAAAUCUGAGCACGUCAGAAGGAGACACAUGAGGAUCACCCAUGUGGGUGCGAAA [Erteedza] (puzzle: Exclusion 6),–,–,–,31.8 nM,324 nM,35.2 nM
AAAAUGUAAGGAUAUAGCCGGAACCCAGGGUUUGGACCCGGCUAGAAGGUACAUGAGGAUCACCCAUGUAAGAA [Excls4-VII] (puzzle: Exclusion 4),–,–,–,17.4 nM,–,–
"AAAAUGUCAGGAUAUUGUUAGUUUAGUUGUUUGUAUUAGUUCGAGAAGGGACAUGAGGAUCACCCAUGUGAAAA [Ex4 #68] (Eterna round: R97, puzzle: Exclusion 4)",42.5 nM,–,35.8 nM,–,–,–
"AAACAAACGGCAGGAUAUCCUCGUCAACACCACAAGUCCACUCGGACAUGAGGAUCACCCAUGUAGGAGAAGGGUCAGAAAUAC [ExNG2 4th] (Eterna round: R96, puzzle: Exclusion NG 2)",37.2 nM,24.6 nM,37.1 nM,–,–,–
AAACAGGGAGGAUAUACAUAGAUCCUCUAACCUAAUAGGUCACAUGAGGAUCACCCAUGUAGAAGGCCCUUAGG [Biinbebi] (puzzle: Exclusion 2),–,–,–,14.3 nM,–,–
AAACAGGGAGGAUAUACAUAGAUCCUCUAACCUAAUUGGUCACAUGAGGAUCACCCAUGUAGAAGGCCCUUAGG [Enquanes] (puzzle: Exclusion 2),–,–,–,13.6 nM,–,–
AAACCACAUGAGGAUCACCCAUGUGAGGAUAUGAUACUAUGUACUUCGGUACAUAGUAUCAGAAGGCAUAUGAA [Ex1-3: 48] (puzzle: Exclusion 1),–,–,–,24.4 nM,–,–
"AAACCCUGAGGAUAUACAUAACAACAAAGCCUCACGUGCCAACAUGAGGAUCACCCAUGUAGAAGGCGGGCCAA [Mod R3 Insanara 14 - Jieux - Exclusion 2] (Eterna round: R97, puzzle: Exclusion 2)",37.3 nM,–,15.1 nM,–,–,–
"AAACGGCAGGGAGGAUAUGCUUACCUGGGUCGUCUUCGAACAUGAGGAUCACCCAUGUAGUCGACGCAGAAGGCCCUCAAAGCC [JL ViennaUCT Ontiis mod 2] (Eterna round: R96, puzzle: Exclusion NG 2)",47.4 nM,17.1 nM,21.5 nM,–,–,–
"AAACUACUAGGAUAUACAACGGUGUCCUAACUACUAAGAAAACAUGAGGAUCACCCAUGUAGAAGGAGUAGUGA [Lauslabe] (Eterna round: R96, puzzle: Exclusion 2)",–,28.6 nM,–,–,–,–
"AAACUCCCGGCAACCGGGAACAUGAGGAUCACCCAUGUGGCGUGACUCAUACGGGCUUUUUGUUCGUUUUAUUCACG [Xeisororer] (puzzle: Sensor v3, turn-off variant 1)",–,–,–,27.7 nM,53.4 nM,63.6 nM
"AAACUGAGGCUUUGCUUUAGUCGUACAUGAGGAUCACCCAUGUAGGAUAUGGUAGGCUUUGCUUACCAGAAGGACAGAGUGAUC [JL EXNG3 1.20] (Eterna round: R96, puzzle: Exclusion NG 3)",80.5 nM,404 nM,279 nM,–,–,–
AAAGAACAUGAGGAUCACCCAUGUGAGGAUAUGCGAAAACCGCUGACAAACCAGACGGGCAGAAGGCAUAUGGU [Birima] (puzzle: Exclusion 1),–,–,–,56.2 nM,–,–
"AAAGACCAAGUGAGGAUAUUAUGGACAAUGGAACAUGAGAAGGCACAUGAGGAUCACCCAUGUGAAUAGGGACG [Eternabot (Original) Solution 22] (Eterna round: R97, puzzle: Brourd's mod of Exclusion 4)",33.5 nM,–,19.4 nM,–,–,–
AAAGAGCGAGGAUAUACGUAUCGGUGCGGCCCGCCGAUGUGACAUGAGGAUCACCCAUGUAGAAGGCGCAGAAA [Excls2-X] (puzzle: Exclusion 2),–,–,–,21.3 nM,–,–
"AAAGAGUGAGGAUAUACAUGAGGAUCACCCAUGUACGUAAUACAAUACGGGUGACGACGUAGAAGGCAUUGCUG [Eternabot (Original) Solution 28] (Eterna round: R97, puzzle: Exclusion 3)",198 nM,–,781 nM,–,–,–
